From US8236540B2, “Isolated luciferases and the use thereof” (Bayer Intellectual Property GmbH, priority 2000, dated 2012)

What was measured:
[1] = tested on: Lu22; assay: Coelenterazine derivatives as substrates of Lu22; assay type: biochemical, Metridia longa; conditions: coelenterazine derivatives 10^-4 M
[2] = tested on: LuAL; assay: Coelenterazine derivatives as substrates of LuAL; assay type: biochemical, Metridia longa; conditions: coelenterazine derivatives 10^-4 M
[3] = tested on: Lu164; assay: Coelenterazine derivatives as substrates of Lu164 (luminescence with CHO-pcDNA3-Lu164 supernatant); assay type: biochemical, Metridia longa; conditions: 10 μl derivative (10^-4 M) + 10 μl supernatant of CHO-pcDNA3-Lu164, 8.7 kV for 30 seconds
Experimental: In order to identify substrates for Lu164, 10 μl solutions of different coelenterazine derivatives (10^−4 M) were in each case incubated with 10 μl of supernatant from CHO-pcDNA3-Lu164 cell lines and the luminescence was measured. The coelenterazines were obtained from Molecular Probes (USA).

[4] = Luciferase activity (chemiluminescence) after constitutive eukaryotic expression in transiently transfected CHO cells; assay type: cell-based; conditions: CHO cells transiently transfected with pcDNA3 vectors, 5 μl, coelenterazine 10^-4 M, 9.5 kV for 30 seconds, room temperature
Experimental: Constitutive eukaryotic expression was affected in CHO cells by transfecting the cells with the expression plasmids pcDNA3-Lu164, pcDNA3-LuAL and pcDNA3-Lu22 in transient experiments. For this, 10 000 cells in DMEM-F12 medium were plated, per well, in 96-well microtiter plates and incubated overnight at 37° C. The transfection was effected using the Fugene 6 kit (Roche) in accordance with the manufacturer's instructions. The transfected cells were incubated overnight at 37° C. in DMEM-F12 medium. The chemiluminescence in the medium (5 ul) and the cell lysate (5 μl) was measured for 30 seconds at 9.5 kV in a luminometer, at room temperature, after adding coelenterazine (10^−4 M in methanol).
Values of 680 000, 670 000 and 510 000 RLU (relative light units) were measured in the case of Lu1 64, LuAL and Lu22, respectively. The expression was effected in CHO cells using the vectors pcDNA3-Lu164, pcDNA3-LuAL and pcDNA3-Lu22.

[5] = Luciferase activity (chemiluminescence) of bacterial lysate after adding coelenterazine; assay type: biochemical; conditions: 5 μl E. coli BL21(DE3) lysate (5 mg/ml), pTriplEx2 vectors, coelenterazine 10^-4 M, 9.5 kV for 30 seconds
Experimental: The bacterial expression took place in the E. coli strain BL21(DE3) as a result of transforming the bacteria with the expression plasmids pTriplEX2-Lu164, pTriplEX2-LuAL and pTriplEX2-Lu22. The transformed bacteria were incubated at 37° C. for 3 hours in LB medium and expression was induced for 4 hours by adding IPTG to a final concentration of 1 mM. The induced bacteria were harvested by centrifugation, resuspended in PBS and disrupted by ultrasonication. Coelenterazine (10^−4 M in methanol) or luciferin (Firefly Luciferin) was added to 5 μl of the lysate (5 mg/ml) and the chemiluminescence was measured.
The measurement, in RLU (relative light units), took place at 9.5 kV for 30 seconds. Values of 230 000, 320 000 and 260 000 RLU were measured in the case of Lu1 64, LuAL and Lu22, respectively. The enzymes were expressed in E. coli BL21(DE3) using the vectors pTriplEx2-Lu164, pTriplEx2-LuAL and pTriplEx2-Lu22.

Molecule: Oc1ccc(Cc2nc3c(Cc4ccccc4)nc(-c4ccc(O)cc4)cn3c2O)cc1 [coelenterazine]
- substrate suitability for Lu22 (luminescence) [1]: optimal substrate
- substrate suitability for LuAL (luminescence) [2]: optimal substrate
- substrate suitability for Lu164 (luminescence) [3]: optimal substrate

B1: Lu22: coelenterazine-dependent secreted luciferase from Metridia longa, amino acid sequence SEQ ID NO: 6 (protein, listed as Metridia longa)
chain: MGVKLIFAVVCVAVAQAATIQENFEDIDLVAIGGSFASDVDANRGGHGGHPGKKMPKEVLMEMEANAKRAGCHRGCLVCLSHIKCTAQMQKFIPGRCHSYAGDKDSAQGGIAGGAIVDIPEIAGFKEMKPMEQFIAQVDLCEDCTTGCLKGLANVHCSDLLKKWLPSRCKTFASKIQSQVDTIKGLAGDR
- chemiluminescence, RLU (relative light units) [4]: 510 000 RLU
- chemiluminescence, RLU (relative light units) [5]: 260 000 RLU

B2: Lu164: coelenterazine-dependent secreted luciferase from Metridia longa, amino acid sequence SEQ ID NO: 4 (protein, listed as Metridia longa)
chain: MDIKVVFTLVFSALVQAKSTEFDPNIDIVGLEGKFGITNLETDLFTIWETMEVMIKADIADTDRASNFVATETDANRGKMPGKKLPLAVIMEMEANAFKAGCTRGCLICLSKIKCTAKMKVYIPGRCHDYGGDKKTGQAGIVGAIVDIPEISGFKEMAPMEQFIAQVDRCASCTTGCLKGLANVKCSELLKKWLPDRCASFADKIQKEVHNIKGMAGDR
- chemiluminescence, RLU (relative light units) [4]: 680 000 RLU
- chemiluminescence, RLU (relative light units) [5]: 230 000 RLU

B3: LuAL: coelenterazine-dependent secreted luciferase from Metridia longa, amino acid sequence SEQ ID NO: 2 (protein, listed as Metridia longa)
chain: MDMRVIFALVFSSLVQAKSTEFDPNINIVGLEGKFGITNLETDLFTIWETMDVIKSDITDTDRVSNFVATETDANRGKMPGKKLPLAVIMEMEANAFKAGCTRGCLICLSKIKCTAKMKVYIPGRCHDYGGDKKTGQAGIVGAIVDIPEISGFKEMAPMEQFIAQVDLCATCTTGCLKGLANVKCSELLKKWLPGRCASFADKIQKEVHNIKGMAGDR
- chemiluminescence, RLU (relative light units) [4]: 670 000 RLU
- chemiluminescence, RLU (relative light units) [5]: 320 000 RLU
